This passage reports Kd results from article PMC7970798 (Computational and Structural Biotechnology Journal, 2021).

Changes are numbered by the printed parent chain. Where two headings read alike, the source gives them in different places. No end group written: not given here. *: point of attachment. Biotin = O=C1N[C@H]2[C@H](CS[C@H]2CCCCC(=O)*)N1 Bounds are passed on as bounds.

The chains are these.
T1: PDZ domain of wild type human PALS1 protein (human, UniProt Q8N3R9 256-336)
T1 sequence: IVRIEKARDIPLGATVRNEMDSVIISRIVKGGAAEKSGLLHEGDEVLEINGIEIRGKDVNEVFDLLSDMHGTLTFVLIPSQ

B1: CRB1 C-terminal tetradecapeptide (endogenous PALS1 ligand) (peptide)
peptide: Biotin-MWNLMPPPAMERLI
B2: [change] variant of the PDZ domain of PALS1 (domain or fragment)
chain: T1 sequence with F63W

Test in all cases: SPR
For assay [1], the target named is T1, PDZ domain of wild type human PALS1 ….
The target is the same in assay [2]. The source holds these as a separate data set.
The target in assay [3] is B1.

B1: binding in assay [1] was put at a Kd of 5.11 µM.
For Biotin-VKNLNSSRVPDLLV [SARS-CoV-2 envelope E protein C-terminal tetradecapeptide], the Kd (usually the constant that tells how readily two partners part at equilibrium) in assay [2] is 63 µM.
On to KNLNSSEGVPDLLV [SARS-CoV-1 envelope E protein C-terminal tetradecapeptide], for which the dissociation constant (Kd) in assay [2] was > 500 µM.
Consider B2, for which the equilibrium dissociation constant (Kd) in assay [3] was 18 µM.
